Among the data in publication PMC11202772 are EC50 of cAMP production (HTRF) in CHO-K1 cells transiently expressing eel LH/CGR; ligand 0-1500 ng/mL, 30 min, room temperature values, retold here.

In this test the target is eel luteotropin/chorionic gonadotropin hormone receptor (eel LH/CGR) (eel).

On to “tethered eel LH mutant (tethered rec-eel LH-M) with the eLH/CG β-subunit CTP linker between the β-subunit and the α-subunit (from UniProt P08751 135-169) (ligand)”, for which the EC50 of cAMP production (HTRF) in CHO-K1 cells transiently expressing eel LH/CGR; ligand 0-1500 ng/mL, 30 min, room temperature came out at 0.0478 µg/mL. In turn, “wild-type tethered eel luteinizing hormone (tethered rec-eel LH-wt) (ligand)” came in with an EC50 of cAMP production (HTRF) in CHO-K1 cells transiently expressing eel LH/CGR; ligand 0-1500 ng/mL, 30 min, room temperature of 0.139 µg/mL.
